The nanobody polyreactivity screen of Harvey et al. (2022)

Experiment: yeast display, Sf9 membrane polyspecificity reagent, FACS + sequencing; frameworks hold sequencing errors
In short: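 A nanobody's polyreactivity label depends on the gate it was sorted from. Yeast display cells were stained with 10% biotinylated, detergent-solubilized Sf9 membrane reagent for 1 hour at 4 °C, enriched on streptavidin microbeads and sorted by FACS. The low and high (top ~1%) gates were set on anti-HA fluorescence for expression and streptavidin fluorescence for reagent binding.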

Which “polyreactivity (PSR sort gate)” value does the source give for “QVQLVESGGGLVQAGGSLRLSCAASGRIFQRYAMGWYRQSPGKERELVAGITSSGGSTYYADSVKGRFTISRDNAKNTVYLQMNSLKPEDTAVSYCNAGGELCYYGYRAGCTTRSYDYWGQGTLVTVSS” here?
The value was “low polyreactivity”.

Which “polyreactivity (PSR sort gate)” value does the source give for “QVQLVESGGGLVQAGGSLRLSCAASGRIFQSYAMGWYRQAPGKERELVAGISTRGGNTYYADSVKGRFTISRDNAKNTVYLQMNSLKPEDTAVYYCAKRDYGRFASDYWGQGTQVTVSS” here?
The value was “high polyreactivity”.

For “QVQLVESGGGLVQAGGSLRLSCAASGRIFQWYAMGWNRQAPGKERELVAAISWRGGSTYYADSVKGRFTISRDNAKNTVYLQMNSLKPEDTAVYYCNAVRRASSGYDYWGHGTQVTVSS”, which “polyreactivity (PSR sort gate)” value is on record?
The value was “high polyreactivity”.

Which “polyreactivity (PSR sort gate)” value does the source give for “QVQLVESGGGLVQAGGSLRLSCAASGRIFQYNAMGWYRQAPGKERELVAAIRRGGGSTYYADSVKGRFTISRDNAKNTVYLEMNSLKPEDTAVYYCAARRIRVSFYPEYDYWGQGTQVTVSS” here?
Its value is “low polyreactivity”.

With “QVQLVESGGGLVQAGGSLRLSCAASGRIFQYNAMGWYRQAPGKERELVAAIRRGGGSTYYADSVKGRFTISRDNAKNTVYLQMNSLKPEDTAVYYCADRRQRVSFYPEYDYWGQGTQVTVSS” as the sequence, how does the “polyreactivity (PSR sort gate)” value read?
Its value is “low polyreactivity”.

With “QVQLVESGGGLVQAGGSLRLSCAASGRIFQYYAMGWYRQAPGKEREFVAAITGRGTRTYADSVKGRFTISRDNAKYTVYLQMNSLKPEDTAVYYCAKPFHYGRSYRSKMDYWGQGTQVTVSS” as the sequence, how does the “polyreactivity (PSR sort gate)” value read?
Its value is “high polyreactivity”.

With “QVQLVESGGGLVQAGGSLRLSCAASGRIFQYYAMGWYRQAPGKERELVAAITRSGGRTYYADSVKGRFTISRDNAKNTVFLQMNSLKPEDTAVYYCAARDWYYTMYYWGQGTQVTVSS” as the sequence, how does the “polyreactivity (PSR sort gate)” value read?
Its value is “high polyreactivity”.

For “QVQLVESGGGLVQAGGSLRLSCAASGRIFQYYVMGWYRQAPGKERELVAAIRSGGTTNYADSVKGRFTISRDNAKNTVYLQMNSLKPEDTAVYYCNARYRNTFYTRRYAYWGQGTQVTVSS”, which “polyreactivity (PSR sort gate)” value is on record?
The value was “high polyreactivity”.

For “QVQLVESGGGLVQAGGSLRLSCAASGRIFRANAMGWYRQAPGKERELVAGISYRGGSTYYADSVKGRFTISRDNAKNTVYLQMNSLKPEDTAVYYCAVRSSPELRYHYEYWGQGTQVTVSS”, which “polyreactivity (PSR sort gate)” value is on record?
The value was “low polyreactivity”.

For “QVQLVESGGGLVQAGGSLRLSCAASGRIFRANAMGWYRQAPGKERELVAGITRRGGSTNYADSVKGRFTISRDNAKNTVYLQMNSLKPEDTAVYYCNRDVSLSTSIRMDYWGQGTQVTVSS”, which “polyreactivity (PSR sort gate)” value is on record?
The value was “low polyreactivity”.

For “QVQLVESGGGLVQAGGSLRLSCAASGRIFRAYTMGWYRQAPGKARELVAAISRSTGSTNYADSVKGRFTISRDNAKNTVYLQMNSLKPEDTAVYFCNARSRWYLVGQQSTRLDYWGQGTQVTVSS”, which “polyreactivity (PSR sort gate)” value is on record?
The value was “high polyreactivity”.

With “QVQLVESGGGLVQAGGSLRLSCAASGRIFRFYAMGWYRQAPGKERELVAAITRNVGSTFYADSVKGRFTISRDNAKNTVYLQMNSLKPEDTAVYYCAAESDYYYRYTFDYWGQGTLVTVSS” as the sequence, how does the “polyreactivity (PSR sort gate)” value read?
The value was “low polyreactivity”.

Which “polyreactivity (PSR sort gate)” value does the source give for “QVQLVESGGGLVQAGGSLRLSCAASGRIFRFYAMGWYRQAPGKERVLVAAITRNVGSTFYADSVKGRFTISRDNAKNTVYLQMNSLKPEDSAVFYCAAESDYYYRYTFDYWGQGTQVTVSS” here?
Its value is “low polyreactivity”.

For “QVQLVESGGGLVQAGGSLRLSCAASGRIFRGNAMGWYRQAPGKERELVAAILTGVSTYYADSVKGRFTISRDNAKNTVYLQMNSLNPEDTAVYYCADERPSRRSVYEYWGQCTQVTVSS”, which “polyreactivity (PSR sort gate)” value is on record?
Its value is “low polyreactivity”.

With “QVQLVESGGGLVQAGGSLRLSCAASGRIFRGNAMVWSRQAPGKERELVASISWRGASTDYADSVKGRFTISRDNAKNTVYLQMNRMKPEDTAVYYCAARVVWRISVYYVIDYNYWGQGTQVTVSS” as the sequence, how does the “polyreactivity (PSR sort gate)” value read?
The value was “high polyreactivity”.

Which “polyreactivity (PSR sort gate)” value does the source give for “QVQLVESGGGLVQAGGSLRLSCAASGRIFRGNGMGWYRQAPGKERELVAAIRRSGGSTYYADSVKGRFTISRDNAKNTVYLQMNSLKPDDTAVFYCNADYTVVLSRVIYARGYWGQGTQVTVSS” here?
The value was “high polyreactivity”.

For “QVQLVESGGGLVQAGGSLRLSCAASGRIFRGNVMGWYRQAPGKERELVAAINSGASSNYADSVKGRFTISRDNAKNTVYLQMNSLKPEDTAVYYCAKRGPRSYFQPCYDYWGQGTQVTVSS”, which “polyreactivity (PSR sort gate)” value is on record?
The value was “high polyreactivity”.

For “QVQLVESGGGLVQAGGSLRLSCAASGRIFRGYAMGLYRQAPGKEREFVAAISWSGGDTYYADSVKGRFTISRDTAKNTVYLQMNSLKPEDTAVYYCATEYRLIPGPFVWPYDYWGQGTQVTVSS”, which “polyreactivity (PSR sort gate)” value is on record?
The value was “high polyreactivity”.

Which “polyreactivity (PSR sort gate)” value does the source give for “QVQLVESGGGLVQAGGSLRLSCAASGRIFRGYAMGWYRQAPGKERELVAAISGSGGSTYYADSVKGRFTISRDNAKNTVYLQMMSLKPEDTAVYYCAADQQSTGDWAGDYWGQGTQVTVSS” here?
Its value is “low polyreactivity”.

For “QVQLVESGGGLVQAGGSLRLSCAASGRIFRGYAMGWYRQAPGKERELVARITSSGSTNYADSVKGRFTISRDNAKNTVYLQMNSLKPEDTAVYYCAADKYYWGTGVWMDYWGQGTQVTVSS”, which “polyreactivity (PSR sort gate)” value is on record?
The value was “high polyreactivity”.

Which “polyreactivity (PSR sort gate)” value does the source give for “QVQLVESGGGLVQAGGSLRLSCAASGRIFRGYVMGWYRQAPGKERELVAITIGAGRTYYADSVKGRFTISRDNAKNTVYLQMISLKPEDTAVYYFAVRLYANSGRFDYWGQGTQVTVSS” here?
The value was “low polyreactivity”.

For “QVQLVESGGGLVQAGGSLRLSCAASGRIFRHNPMGWYRQAPGKERELVAAITSRGGTYYADSVKGRFTISRDNAKNTVYFQMNSVKPEDTAVYYCAADRPIYPYPGKGFRYDYWGQGTQVTVSS”, which “polyreactivity (PSR sort gate)” value is on record?
The value was “low polyreactivity”.

With “QVQLVESGGGLVQAGGSLRLSCAASGRIFRHNTMGWYRQAPGKERELVAGITASGGDTYYADSVKGRFTISRDNAKNTVYLDMNSLKPEDTAVYYCATSQYGYRSWPGLYYWGQGTQVTVSS” as the sequence, how does the “polyreactivity (PSR sort gate)” value read?
The value was “low polyreactivity”.

With “QVQLVESGGGLVQAGGSLRLSCAASGRIFRINAMGWYRQAPGKERELVASISRRGGNTYYADSVKGRFTISRDNAKNTVYLQMNSLKPEDTAVYYCAADTNQERTFYYWGQGTQVTVSS” as the sequence, how does the “polyreactivity (PSR sort gate)” value read?
Its value is “low polyreactivity”.

For “QVQLVESGGGLVQAGGSLRLSCAASGRIFRINAMGWYRQAPGKERELVASITSRAGSTYYADSVKGRFTISRDNAKNTVYLQMTSLKPEDTAVYDCAARSVYTYYRLDYWGQGSQVTVSS”, which “polyreactivity (PSR sort gate)” value is on record?
Its value is “high polyreactivity”.

For “QVQLVESGGGLVQAGGSLRLSCAASGRIFRINTMGWNRQAPGKERELVAAIRTSGSSTYADSVKGRFTISRDNAKNTVYLQMNSLKPEDTAVYYCNTKYPGRGYYWGQGTQVTVSS”, which “polyreactivity (PSR sort gate)” value is on record?
The value was “high polyreactivity”.

For “QVQLVESGGGLVQAGGSLRLSCAASGRIFRIYAMGWYIQAPGKERELVARITYSVGSTYYADSVKGRFTISRDNEKNSVFLQMNSLKPEDTSVYYCAADWLGYQYGYWGQGSQVTVSS”, which “polyreactivity (PSR sort gate)” value is on record?
Its value is “low polyreactivity”.

With “QVQLVESGGGLVQAGGSLRLSCAASGRIFRKYTMGWYRQAPGKERELVAAISARGGSTYYADSVKGRFTISRDNAKNTVYLQMNSLKPEDTAVYYCTTSPIGNITYRYDYWGQGTQVTVSS” as the sequence, how does the “polyreactivity (PSR sort gate)” value read?
Its value is “high polyreactivity”.

With “QVQLVESGGGLVQAGGSLRLSCAASGRIFRLYALGWDRQAPGKERELVATITSGGTYYADSVKGRFTISRDNAKNTVYLQMNSLKPEDTAVYYCAAHSGSTYKYWGQGTQVTVSS” as the sequence, how does the “polyreactivity (PSR sort gate)” value read?
The value was “low polyreactivity”.

With “QVQLVESGGGLVQAGGSLRLSCAASGRIFRLYAMGWYRQAPGKEREFVATITWIGGRTYYADSVKGRFTISRDNAKNTVYLQMNSLKPEDTAVYYCAADPGYTYEYWGQGTQVTVSS” as the sequence, how does the “polyreactivity (PSR sort gate)” value read?
The value was “low polyreactivity”.

Which “polyreactivity (PSR sort gate)” value does the source give for “QVQLVESGGGLVQAGGSLRLSCAASGRIFRLYAMGWYRQAPGKERELVAAISKSGGSTYYADSVKGRFTISRDNAKYTVYLQMNSLNPEDTAVYYCAADYRTHGGYVGTFDYWGQGTQVTVSS” here?
Its value is “low polyreactivity”.

For “QVQLVESGGGLVQAGGSLRLSCAASGRIFRLYVMGWYRQAPGKERELVARIRIRDSNTYYADSVKGRFTISRDNAKHTVYLQMNSLKPEDTAVYYCAVVATYVYSKYDYWGQGTQVTVSS”, which “polyreactivity (PSR sort gate)” value is on record?
The value was “low polyreactivity”.

With “QVQLVESGGGLVQAGGSLRLSCAASGRIFRNAMGWYRQAPGKERELVAAISSGGSTNYADSVKGRFTISRDNAKNTVYLQMNSLKPEDTAVYYCAADWDWWYQEFDYWGQGTQVTVSS” as the sequence, how does the “polyreactivity (PSR sort gate)” value read?
The value was “high polyreactivity”.

Which “polyreactivity (PSR sort gate)” value does the source give for “QVQLVESGGGLVQAGGSLRLSCAASGRIFRNNAMGWYRQAPGKERELVAAITWSGGSTYYADSVKGRFTISRDNAKNTVYLQMNSLKPEDTAVYYCNAGRGYKYSYTYDYWGQGTQVTVSS” here?
The value was “low polyreactivity”.

With “QVQLVESGGGLVQAGGSLRLSCAASGRIFRNYAMGWYRQAPGKERELVAAISSGGGSTYYADSVKGRFTISRDNAKNTVYLQMNSLKPEDTAVYYCNARYVYYGKFREYDYWGQGTQVTVSS” as the sequence, how does the “polyreactivity (PSR sort gate)” value read?
The value was “high polyreactivity”.

For “QVQLVESGGGLVQAGGSLRLSCAASGRIFRNYAMGWYRQAPGKERELVAAISTRSGSTYYADSVKGRFTISRDNAKNTVYLQMNSLKPEDTAVYYCNKVSVGRYYALYYWGQGTKVTVSS”, which “polyreactivity (PSR sort gate)” value is on record?
Its value is “high polyreactivity”.

With “QVQLVESGGGLVQAGGSLRLSCAASGRIFRNYGMGWYRQAPGKERELVATITWTGGSTFYADSVKGRFTISRDNAKNTVYLQMNSLKPEDTAVYYCAAEWHRLIYFSPRYDFDYWGQGTQVTVSS” as the sequence, how does the “polyreactivity (PSR sort gate)” value read?
The value was “low polyreactivity”.

For “QVQLVESGGGLVQAGGSLRLSCAASGRIFRPNAMGWYRPAPGKERELVAAISYSGATTYYADSVKGRFTISRDNAKNTVYLQMNSLKPEVTAVYYCAAGGTSGQEFGYWGQGTQVTVSS”, which “polyreactivity (PSR sort gate)” value is on record?
The value was “low polyreactivity”.

With “QVQLVESGGGLVQAGGSLRLSCAASGRIFRRNAMGWYRQAPGKERELVAGIDSSGGSTYYADSVKGRFTISRDNAKNSVYLQMNSLKPEDTAVYYCNAVGYSQGYDYWGQGTQVTVSS” as the sequence, how does the “polyreactivity (PSR sort gate)” value read?
Its value is “high polyreactivity”.

For “QVQLVESGGGLVQAGGSLRLSCAASGRIFRRYAMGWYRQAPGKEREFVAAISTSGGSTYYADSVKGRFTISRDNAKNTVYLQMNSLKPEDTAVYYCAKRFIYGRYNYWGQGTQVTVSS”, which “polyreactivity (PSR sort gate)” value is on record?
Its value is “high polyreactivity”.

For “QVQLVESGGGLVQAGGSLRLSCAASGRIFRRYAMGWYRQAPGKERELVAAISSRGGRTYYADSVKGRFTISRDNAKNTVYLQMNSLKPEETAVYYCNARSFRWCRWLRLPFNYWGQGTQVTVSS”, which “polyreactivity (PSR sort gate)” value is on record?
The value was “high polyreactivity”.

With “QVQLVESGGGLVQAGGSLRLSCAASGRIFRRYAMGWYRQAPGKERELVAAISVTGGRTYYADSVKGRFTISRDNAKNTVYLQMNSLKPEDTAVYYCNTLQYQERYAYDYWGQGTQVTVSS” as the sequence, how does the “polyreactivity (PSR sort gate)” value read?
The value was “high polyreactivity”.

For “QVQLVESGGGLVQAGGSLRLSCAASGRIFRRYAMGWYRQAPGKERELVASISSGGSTNYADSVKGRFTISRDNAKNTVYLQMNSLKPEDTAVYYCAAAYPWQTRYSSPYYYWGQGTQVTVSS”, which “polyreactivity (PSR sort gate)” value is on record?
The value was “high polyreactivity”.
